# Laboratory results taken from PMC5225424.
# Target: GmMYB176-YFP (soybean (Glycine max))
# Test: FRET or BRET; FRET by acceptor bleaching, CFP as donor and YFP as acceptor, co-expressed in N. benthamiana leaf epidermal cells; average of multiple samples (n > 15)
substance,measurement,value
GmCYP1-CFP (from UniProt Q8W171 1-172) (natural protein),FRET efficiency,23.8%
